Measured values reported in patent publication US20220177587A1, “METHODS AND USES OF VARIANT CD80 FUSION PROTEINS AND RELATED CONSTRUCTS” (Alpine Immune Sciences, Inc., priority 2018, published 2022).

What was measured:
huPD-L1/MC38 cells = assay: huPD-L1 MC38 tumor model, combination with oxaliplatin; type: in vivo, mouse; conditions: monotherapy
Description: To test the anti-tumor activity of the exemplary variant, it was evaluated alone or in combination with the platinum-based chemotherapeutic agent, oxaliplatin, in mice bearing human PD-L1-expressing MC38 tumors, which is a syngeneic mouse colon carcinoma solid tumor model.
The huPD-L1 MC38 cell line was generated by transducing parental MC38 cells with huPD-L1 using viral transduction. Eight-week old female C57/BL6NJ mice (The Jackson Laboratories, Sacramento, Calif.) were implanted subcutaneously with 0.5×10^6 huPD-L1/MC38 cells. For injections, 0.1 mL of cells (0.5×10^6 cells) were injected subcutaneously (SC) in the right mid-flank region.
On day 1, mice were randomized into four groups of 10 mice each, with all mice in each group having about equal mean tumor volumes (˜108 mm^3). Tumors were measured with electronic calipers two-dimensionally twice weekly, beginning on day 7 post-tumor cell implant (referred to as “day 1”). Tumor volume was calculated as length×(width×2)×0.5, with the length being the longer of the two measurements.
As shown, 30% of the mice in the monotherapy group were tumor free by the end of the study.

huPD-L1 = huPD-L1 (Homo sapiens, UniProt Q9NZQ7); assay: Flow binding to CHO cells stably expressing PD-L1; design: huCTLA4 and huPD-L1, full-length mammalian surface expression constructs were generated; expressed in transfected cells; host or cells: CHO cells, lentiviral transduction, sorted to >98% purity; conditions: 66.7 nM
Chain of huPD-L1 (Q9NZQ7 19-290): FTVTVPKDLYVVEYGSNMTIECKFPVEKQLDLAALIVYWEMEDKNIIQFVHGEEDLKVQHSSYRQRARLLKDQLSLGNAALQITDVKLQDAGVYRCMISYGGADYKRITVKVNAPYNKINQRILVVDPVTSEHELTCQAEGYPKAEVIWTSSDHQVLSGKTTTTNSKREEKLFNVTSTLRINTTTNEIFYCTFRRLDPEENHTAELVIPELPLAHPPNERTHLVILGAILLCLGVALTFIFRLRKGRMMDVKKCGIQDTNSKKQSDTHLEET
Description: (§1) Binding of selected immunomodulatory fusion proteins to cognate binding partners was assessed. […] Cells were sorted in a Bio-Rad S3 Cell Sorter (Bio-Rad Corp., USA) to >98% purity. Jurkat/IL2 reporter cells, which endogenously express CD28, were used to detect binding to CD28.
(§2) For staining and analysis by flow cytometry, 100,000 cells of appropriate transfected cells were plated in 96-well round bottom plates. Cells were spun down and resuspended in staining buffer (phosphate buffered saline (PBS), 1% bovine serum albumin (BSA), and 0.1% sodium azide) for 20 minutes to block non-specific binding. […] Primary staining was performed on ice for 45 minutes, before washing cells in staining buffer twice. Phycoerythrin (PE)-conjugated anti-human Fc (Jackson ImmunoResearch, USA) was diluted 1:150, added to cells and incubated another 30 minutes on ice. Cells were then washed twice with 150 μL/well stain buffer, fixed in 2% formaldehyde/PBS, and analyzed on Intellicyt flow cytometer (Intellicyt Corp., USA). PE Mean Fluorescence Intensity (MFI) was calculated for each cell type with FlowJo Version 10 software (FlowJo LLC, USA).
(§3) Binding assays were carried out to assess the specificity and affinity of multivalent proteins to cell-expressed CTLA-4, CD28, and PD-L1 counter structures.
(§4) The EC50 for binding also was determined.

CD28 [1] = biological target: T1, CD28 (Homo sapiens, UniProt P10747); assay: Jurkat/IL2 + K562/OKT3 (no PD-L1) reporter assay of CD80 ECD-Fc (effector); type: cell-based; design: host or cells: Jurkat cells expressing an IL-2-luciferase reporter; conditions: aAPC without PD-L1
Description: The bioactivity of the generated molecules also was assessed using a Jurkat report assay as described in Examples 9 to assess CD28 costimulation of the molecules.

huCTLA4 = huCTLA4 (Homo sapiens, UniProt P16410); assay: Flow binding to CHO cells stably expressing CTLA4; design: huCTLA4 and huPD-L1, full-length mammalian surface expression constructs were generated; expressed in transfected cells; host or cells: CHO cells, lentiviral transduction, sorted to >98% purity
Chain of huCTLA4 (P16410 36-223): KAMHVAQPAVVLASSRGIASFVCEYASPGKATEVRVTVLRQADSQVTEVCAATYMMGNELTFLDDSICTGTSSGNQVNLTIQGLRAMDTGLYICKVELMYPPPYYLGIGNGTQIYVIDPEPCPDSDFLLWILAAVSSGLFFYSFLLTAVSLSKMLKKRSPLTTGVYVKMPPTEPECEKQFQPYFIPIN
Description: as §1, §2, §3, §4

CD28 [2] = biological target: T1, CD28; assay: Flow binding to Jurkat/IL2 reporter cells (CD28); design: host or cells: Jurkat cells expressing an IL-2-luciferase reporter
Description: as §1, §2, §3, §4

Pan T cells = assay: Primary T cell stimulation assay with K562/OKT3 +/- PD-L1 (IL-2, IFN-gamma, proliferation); type: cell-based, human; design: IL-2 release, K562/OKT3 (No PD-L1), CD80-IgV Fc (effector), 1 nM / IL-2 release, K562/OKT3 (No PD-L1), CD80-IgV Fc (effector), 10 nM / IL-2 release, K562/OKT3 (No PD-L1), CD80-IgV Fc (effector), 100 nM / IL-2 release, K562/OKT3/PD-L1, CD80-IgV Fc (inert), 1 nM / IL-2 release, K562/OKT3/PD-L1, CD80-IgV Fc (inert), 10 nM / IL-2 release, K562/OKT3/PD-L1, CD80-IgV Fc (inert), 100 nM: unit not given here; conditions: 72 hr
Description: IFN-gamma, IL-2 and proliferation were determined after 72 hr. incubation.

Compound | CHO/PD-L1 MFI at 66.7 nM (huPD-L1) | Relative Luminescence at 98 pM (CD28 [1]) [RLU] | Relative Luminescence at 391 pM (CD28 [1]) [RLU] | Relative Luminescence at 1563 pM (CD28 [1]) [RLU] | Relative Luminescence at 6250 pM (CD28 [1]) [RLU] | Relative Luminescence at 25000 pM (CD28 [1]) [RLU] | Relative Luminescence at 100000 pM (CD28 [1]) [RLU] | further results
O=C1[O][Pt]2([NH][C@@H]3CCCC[C@H]3[NH]2)[O]C1=O [oxaliplatin, reference compound] | – | – | – | – | – | – | – | antitumor activity (huPD-L1/MC38 cells): only modestly effective as monotherapy; tumor free mice by the end of the study (huPD-L1/MC38 cells): no tumor-free mice
CD80 (E35D/D46E/M47V/V68M/D90G/K93E) ECD-Fc: variant full CD80 ECD fused to effector human IgG1 Fc (SEQ ID NO:1527) | 287 | 949 | 939 | 1022 | 1213 | 1558 | 2046 | CHO/CTLA4 MFI at 66.7 nM (huCTLA4; 66.7 nM): 24566; EC50 (huCTLA4; flow binding): 10.5 nM
CD80 (S21P/L70Q/D90G/I118V/T120S/T130A) ECD-Fc: variant full CD80 ECD fused to effector human IgG1 Fc (SEQ ID NO:1527) | 103 | 1042 | 993 | 1049 | 1203 | 1730 | 2197 | Jurkat/CD28 MFI at 66.7 nM (CD28 [2]; 66.7 nM): 282; EC50 (CD28 [2]; flow binding, read-out: Jurkat/CD28 EC50): > 200 nM
Inert Fc Control | – | – | – | – | – | – | – | IL-2 release, K562/OKT3 (No PD-L1), CD80-IgV Fc (effector), 1 nM (Pan T cells; Pan T cells + K562/OKT3 (no PD-L1), effector Fc format (controls as labelled), 1 nM): 7040; IL-2 release, K562/OKT3 (No PD-L1), CD80-IgV Fc (effector), 10 nM (Pan T cells; Pan T cells + K562/OKT3 (no PD-L1), effector Fc format (controls as labelled), 10 nM): 6335; IL-2 release, K562/OKT3 (No PD-L1), CD80-IgV Fc (effector), 100 nM (Pan T cells; Pan T cells + K562/OKT3 (no PD-L1), effector Fc format (controls as labelled), 100 nM): 5512; IL-2 release, K562/OKT3/PD-L1, CD80-IgV Fc (inert), 1 nM (Pan T cells; Pan T cells + K562/OKT3/PD-L1, inert Fc format (controls as labelled), 1 nM): <LOD; IL-2 release, K562/OKT3/PD-L1, CD80-IgV Fc (inert), 10 nM (Pan T cells; Pan T cells + K562/OKT3/PD-L1, inert Fc format (controls as labelled), 10 nM): 143; IL-2 release, K562/OKT3/PD-L1, CD80-IgV Fc (inert), 100 nM (Pan T cells; Pan T cells + K562/OKT3/PD-L1, inert Fc format (controls as labelled), 100 nM): <LOD
